In the DeepSol protein solubility set:

Assay: soluble on expression in E. coli; label from the status in PepcDB or PDB records

Sequence | soluble on expression in E. coli
MAHHHHHHMATASPSLSSNCFIDAATYFESRRGRRTFPERNASQILLGDASANSPIEEEEGLVRRQAQASAPVAWQQQQQQRHQQMRPTRRPRGPGIAFAARIEASGFPAAASRRSACADVVPECLYQYDTSELRTHKRPAQMPNRVKQCDRNLQLFLRPEEQVVRSAAAAVMLGESRDGQLSYSRYPSSQAHEHSKDPRMTADAIEASSSPFSDSAPHDQAMMTDRRSCLPYAPAAELDDSLLLKESLSSDRLRLLEHLYQRERSRLRGASRSVERDVGAVAEEDARAWHGQAPVSSLPWGTTVLPFRHGDSADVAANLPSLRRRAERSSVRRDDGDGAVHAHPLQGRDWQPWERKYACEAHPVTPRTRSSFHASSQIADSNERSDNDNDRNGGVDYTHAKSFGNATCSANWRCASASHRRRVTGSYDDFSDSTEARNEPPKHTTRIGSRMAMADAAPRVPHISAWFAPLRNDRVARQAHHTRSADHARASHSLRGEKERQAGQLQRHISAASPSVQGSSSSTAAGARPVETSPAASARTQATVTLSDVCTHQPLRAPSLQQRQHGKLAGSAASSPLFPTSSARVQGRDDAALTLRDVCGALNTAAVVM | not soluble
MAHHHHHHMATISRRDGRTAREMRGKELRTSDLSQFDGSAWYSQGLTAVTVAINGPTAARQENYRRCTTCIHVNRAARIPQEGGTGRLIMMERRERERCEDGELKQFLTSLVEAIVCLDRFPRCVLEAHVTVLMDDGALFAVASNAIMCALLDAGVPCRSTIAAVSLIMCNPEASGNEGEPEIFLDPTAVEESTDEVRSYASATFVLTNTGGEAVLASRVQARPRSSAYSRPITPKDLSRMFALAAKAAETLFVFFRNCSMALE | not soluble
MAHHHHHHMAYVFDKITKTVTIYMGNTKSKIVLGGLWQRGMKGYIIYDVARQGTPPDTNFAPTTGWSMILVSSPNVRNYDGWATQVKASRIIMNCPDEMDVKAMCAWMKRGLDTDKQAGYWKMVEKHMEKVGPIPRHIFDADEYGERTWDATSALRWINIGEQRKYFTKGGEQWYSEDLSHKLLKIVRVREDGAFEDLSNAPICDYLGVLTVSRLAKALSPNDILFLVLGMKNVVQSAALKKYGLNVFLSVEFVTSIVTDLKELQPPSPSEPRSSVLTLNPHGYPTEAAAITELKFIDRPQELKYRVLYIPTFPTFPLVDGFFFVDSPRKTLVGLQMTTASAHHTTASTVRQFTECMAAYFDDWDEFSRDMSWDMIYIQHAASKPMKKRQKCLYVDSNNKTDAEKKIVAFWNGKVHQYQFVLTTDF | not soluble
MAHHHHHHMCCTFWGLRLDNTCNNMKSVDIIKCDMCFFSHDGLFLIYTIINKIFVIQVKNLEMYRIYVESYKVDDIKLSSDNIHFLTLIKNKGCVCIYSFYKNNLINKICDYFQTYDHSFFLSKHNNIGIVKYEKKCLTIYNMNNPEKCLINIENIKYQNKGYCSNYINTIFACLVENKKDVNILLLSLFNYTIIKIIKCINFFPNDILFSKSDHIIAYSNKNRSLHIYSIDGDLLHVYKYAEDLGGNTKNVKKKKKKKKKSKFCAWKILKKSSFSFWITHCK | not soluble
MAHHHHHHMCDPLVERFISDIIRDPQAWKRAVTSPDNRCCLLPTSNVIRSLAGPLFRRGCVDNVSSLRFLTTLRRDTLSGGNVQRVSMKRKDLRGPWDHRTRVSEEDQPNILIQLLVRQLERNGFGTSYRKAVYSLLGKQVKEMSKKKRQHDAAATAKTMKLNARRIEHLLMEEYNERKKTCDREGRRRQALVRGFFNKASVVVENEEFIGRRTIFQDALDECFAIKTLMEGETQKLTGIPPEHQRNYFAIQQKEKHERECLLARFETQRRAIYLQLQHDIKNSIKSEIRRIMRREKHIEELYKKHGCGK | not soluble
MAHHHHHHMCKDKNEKKNYEHVNANEKNGYLASEKNELTKNKVEEHTYDYDYVVIGGGPGGMASAKEAAAHGARVLLFDYVKPSSQGTKWGIGGTCVNVGCVPKKLMHYAGHMGSIFKLDSKAYGWKFDNLKHDWKKLVTTVQSHIRSLNFSYMTGLRSSKVKYINGLAKLKDKNTVSYYLKGDLSKEETVTGKYILIATGCRPHIPDDVEGAKELSITSDDIFSLKKDPGKTLVVGASYVALECSGFLNSLGYDVTVAVRSIVLRGFDQQCAVKVKLYMEEQGVMFKNGILPKKLTKMDDKILVEFSDKTSELYDTVLYAIGRKGDIDGLNLESLNMNVNKSNNKIIADHLSCTNIPSIFAVGDVAENVPELAPVAIKAGEILARRLFKDSDEIMDYSYIPTSIYTPIEYGACGYSEEKAYELYGKSNVEVFLQEFNNLEISAVHRQKHIRAQKDEYDLDVSSTCLAKLVCLKNEDNRVIGFHYVGPNAGEVTQGMALALRLKVKKKDFDNCIGIHPTDAESFMNLFVTISSGLSYAAKGGCGGGKCG | soluble
MAHHHHHHMCLLDVDEYKHTDTPEPRGEILLRGPFLFKGYYMQEKLTREALDEDGWFHTGDVGSITTHGRLRIIGRVKALAKNVLGEYIALEALESMYAHNALCMPNGVCVLVHPARSYICALVLTDETKAMMFAKEHGIEGSYPDILRDPAFQRKATESMQATARKADRQKFECVRHVRVVGDEWTPENEILTAAGKLKRREIDKRYADVIQLLFVEEC | not soluble
MAHHHHHHMDLIQWPLPYQDELLNFYIFNDSKFVGGQNRWNLFKKKVMHHNIHVISNCYCQISLLRLSQLLNASVDDSESFLSELVSNKILNAKIDRLHGIIKFGQKKTPEVLLNNWSSQIHQILNLLEESSHLIQKERMLHEAKLKRMQLESKNMSL | not soluble
MAHHHHHHMDRLAGSFLSNGDVANASSLYNSLEKLNPTRYSRMARICRVLLNPQGVPLPHRHLDICEALLDPLVPPEVLLRDSAENVQKSFQRLAVCAHPDKNPSPSANEAFLRLTMMKDKALELLRNGVGRKCDGATEAPPGKAADSNGGKGKPKMQGSGPAVPTVAHRRRPLRPGVPL | soluble
MAHHHHHHMDYNVSTAAVVLDCGSFHSRAGFGGEKGPRLDVPTLVGYPRHRSIAMAAGMNEQEVGEEALLKQGILDVHHPIRNGFINDWGDVEKLWSHLFFNELRVSPETHCFLLTQPVNTPAAQRERTLEIMMETFHAHSLYLGTSQVLSLYSYGLTTGLVVDSGKDVTHAVPIHEGYALVRHVTQSPVAGAALTRYLGGLLREQGYALGTATEQELLNGAKEDLCYVRPRAHVQRGAVSDIYTPASGTSAGVSPAAASAASRRSTQLTGGIKGSADSASSATATTAVTAKESFMESAAEKHLDVDGGLTPTAVMGATEDFLLPDGQRIPLAAERYDTAEVLFNYSLLALMDSNGKDSSTYEPRCKVRTDMGDLFRPSFEKGISWLPFAAVNNCEAALRPQLYANMVLAGGSTSFPGLKARLESEVRQLYRESHPSEAVVPIQVRDMPCRTYSTWLGGSMLAQTAVFQHLVVSRKEYEEEGARVIHYKSL | not soluble
MAHHHHHHMEAAAERCFQEGDLKGAACLYANLMVLYPQYTKMARMCRVLSNPLDVPLPYRYADVVEALLDPCVTYQTLFGTDAPPSVVRKAFQGWTLLVHPDKNPYPKAADAFNRLVAFKAAAMGTVDEGPPNAGGVNSKSSCRGNVRNRQRCTKRHGSANRANQSNQHSQLGDEIDMSLYELKKVQVTLKSLKRKNVDDSELPPLSAFLRPGGGARSRGGVDHSNNTKGSVPTPETQEGGSASLDESIPTSPRSCTADTACEPGLSQTIEAQLRSSEGATDAPYVLSELTPQQNEVVRGGKGLEGENTEEPLGLPTAGGHMQQYATNRNVGEVDNGSRVSLEADDSVQGPAKGIQNPDALPRRRGKHVDRLEGTCTGEFTQQSNQNSTCDTSSSEGLHSTTFNEDVPLVELAKLGIRELFDGIQKKINRDPIRLNCDLSFATYTRDKQKEVNEASVQSNDET | not soluble
MAHHHHHHMEAKAQAYLEKLSNSLQAAGRTATADVLKRAKEEFERSLWCEMTDDLLLAVRDPLVLESAYELHENVLKVTRMDMSPTAYVKLLHYICFCPNSTLQKALDLLNGAVVALSTSSEQGENMANCIRALLLLDSYNDKSSPAGTAASEASRILDKVESFIHSKQMHEVEPVLAALHCQARGKDYEIRQQYTKYYSNAFETVKSAERAEMPIIESDLLSLAYKAALSALLSEEIYNFGKFLNERHFTERLADSVQHAWILEWLRLCNDGKVEEFEQYAVAHKAEMAASPILSEFFPSITKKVRLMALLHLVFYTPFNERTFTFDVIARRCAVDEERVEPLLLAALAQGIIMGKIDGLTQEVHITWVEPRVLSLQEVKELAVHVSRWKEKTLGLMQCMKEAAQETHN | soluble
MAHHHHHHMEISSISETDKNAITRLLSSDLSRTVARHAIIVLHYFRTISDEDLPIDVLLGGCVLYAVKQRQASNANYFLRECLERVKESDIVGFELLLVQVVRHNVLLIETCLRSVFHEVLLENPVAGLDRERTIKVCLHLISFLYRTSWCLFPESAARGAFLVASEKCEIKLGKLSSAFDGPMVKHIAKYLRDQFWN | not soluble
